± gives the uncertainty stated by the source.
B1: Tyrosine-protein kinase BTK, residues 215 to 273; numbered along this chain, Q06187 (parent)
chain: ELKKVVALYDYMPMNANDLQLRKGDEYFILEESNLPWWRARDKNGQEGYIPSNYVTEAE

Variants of: B1
Experiment: abundance fitness (aPCA) (normalised: wild type 0, dead -1); higher = more abundant; growth selection in yeast, the domain comes from the species named
Conditions: Homo sapiens

M12F and M12A are within error of each other in abundance fitness: -0.062 ± 0.068 for the first, 0.017 ± 0.038 for the second.

Compared with M12I, M12G is lower in abundance fitness: 0.036 ± 0.06 for the first, -0.136 ± 0.036 for the second.

M12C and M12E are within error of each other in abundance fitness: 0.032 ± 0.052 for the first, 0.017 ± 0.049 for the second.

M12D and M12H are within error of each other in abundance fitness: -0.04 ± 0.054 for the first, 0.006 ± 0.091 for the second.

Compared with Y9L, Y9P is lower in abundance fitness: 0.056 ± 0.029 for the first, -0.663 ± 0.054 for the second.

Y9K and Y9R are within error of each other in abundance fitness: 0.073 ± 0.045 for the first, 0.057 ± 0.031 for the second.

Y9A and Y9E are within error of each other in abundance fitness: 0.062 ± 0.042 for the first, 0.001 ± 0.039 for the second.

Y9C and Y9G are within error of each other in abundance fitness: 0.006 ± 0.05 for the first, -0.018 ± 0.031 for the second.

Y9D and Y9Q are within error of each other in abundance fitness: -0.007 ± 0.061 for the first, 0.098 ± 0.051 for the second.

Y9S and Y9M are the same in abundance fitness: 0.053 ± 0.031 for the first, 0.053 ± 0.038 for the second.

Going from Y9N to Y9W, the abundance fitness falls from 0.07 ± 0.057 to -0.053 ± 0.044.

Y9F and Y9V are within error of each other in abundance fitness: 0.012 ± 0.05 for the first, 0.031 ± 0.028 for the second.

E1Y and E1W are within error of each other in abundance fitness: -0.062 ± 0.16 for the first, -0.088 ± 0.079 for the second.

First: E1V
Second: D10C
The abundance fitness of the first is higher: -0.074 ± 0.048 for the first, -0.783 ± 0.37 for the second.

Going from D10F to D10G, the abundance fitness rises from -0.758 ± 0.24 to -0.168 ± 0.2.

Compared with D10N, K4W is lower in abundance fitness: -0.102 ± 0.049 for the first, -0.334 ± 0.047 for the second.

K4A and K4C are within error of each other in abundance fitness: -0.168 ± 0.048 for the first, -0.225 ± 0.072 for the second.

K4Y and K4H are within error of each other in abundance fitness: -0.285 ± 0.06 for the first, -0.322 ± 0.09 for the second.

K4S and K4M are within error of each other in abundance fitness: -0.1 ± 0.043 for the first, -0.133 ± 0.061 for the second.

Compared with K4G, K4L is higher in abundance fitness: -0.357 ± 0.035 for the first, -0.089 ± 0.041 for the second.

K4P and K4D are within error of each other in abundance fitness: -0.15 ± 0.066 for the first, -0.287 ± 0.17 for the second.

K4V and K4I are within error of each other in abundance fitness: -0.079 ± 0.044 for the first, -0.033 ± 0.098 for the second.

First: K4N
Second: K4Q
The abundance fitness of the first is lower: -0.339 ± 0.11 for the first, -0.088 ± 0.059 for the second.

K4E and K4R are within error of each other in abundance fitness: -0.135 ± 0.054 for the first, -0.072 ± 0.041 for the second.

Going from K4T to V5M, the abundance fitness falls from -0.036 ± 0.046 to -0.134 ± 0.041.

Going from V5H to V5E, the abundance fitness falls from -0.335 ± 0.071 to -0.708 ± 0.079.

Compared with V5Y, V5Q is lower in abundance fitness: -0.113 ± 0.054 for the first, -0.329 ± 0.059 for the second.

Compared with V5L, V5N is lower in abundance fitness: -0.244 ± 0.035 for the first, -0.839 ± 0.069 for the second.

Compared with V5I, V5T is lower in abundance fitness: -0.189 ± 0.035 for the first, -0.323 ± 0.048 for the second.

Going from V5S to V5F, the abundance fitness rises from -0.404 ± 0.04 to -0.052 ± 0.046.

Going from V5G to V5P, the abundance fitness falls from -0.425 ± 0.039 to -0.755 ± 0.071.

V5K and V5C are within error of each other in abundance fitness: -0.288 ± 0.056 for the first, -0.213 ± 0.043 for the second.

Going from Y11Q to Y11D, the abundance fitness falls from -0.316 ± 0.065 to -0.72 ± 0.14.

Y11H and Y11I are within error of each other in abundance fitness: -0.155 ± 0.07 for the first, -0.245 ± 0.05 for the second.

First: Y11V
Second: Y11L
The abundance fitness of the first is lower: -0.298 ± 0.042 for the first, -0.094 ± 0.031 for the second.

First: Y11W
Second: Y11N
The abundance fitness of the first is higher: 0.017 ± 0.04 for the first, -0.383 ± 0.075 for the second.

First: Y11P
Second: Y11T
The abundance fitness of the first is lower: -0.704 ± 0.063 for the first, -0.182 ± 0.058 for the second.

Y11F and Y11R are within error of each other in abundance fitness: 0.005 ± 0.05 for the first, 0.032 ± 0.032 for the second.

Y11G and Y11E are within error of each other in abundance fitness: -0.709 ± 0.058 for the first, -0.562 ± 0.1 for the second.

Y11M and Y11S are within error of each other in abundance fitness: -0.099 ± 0.06 for the first, -0.161 ± 0.033 for the second.

Compared with Y11C, A7F is lower in abundance fitness: -0.202 ± 0.05 for the first, -0.599 ± 0.1 for the second.

A7L and A7W are within error of each other in abundance fitness: -1 ± 0.047 for the first, -1.03 ± 0.071 for the second.

A7Q and A7M are within error of each other in abundance fitness: -0.828 ± 0.059 for the first, -0.837 ± 0.059 for the second.

A7T and A7I are within error of each other in abundance fitness: -0.801 ± 0.056 for the first, -0.966 ± 0.15 for the second.

Going from A7V to A7D, the abundance fitness falls from -0.681 ± 0.04 to -0.909 ± 0.11.

Compared with A7P, A7Y is lower in abundance fitness: -0.654 ± 0.053 for the first, -1.06 ± 0.12 for the second.

First: A7N
Second: A7S
The abundance fitness of the first is lower: -1.11 ± 0.15 for the first, -0.142 ± 0.034 for the second.

Compared with A7E, A7C is higher in abundance fitness: -0.813 ± 0.054 for the first, -0.203 ± 0.055 for the second.

A7R and A7K are within error of each other in abundance fitness: -1.04 ± 0.056 for the first, -0.955 ± 0.06 for the second.

Compared with A7H, A7G is higher in abundance fitness: -0.804 ± 0.11 for the first, -0.364 ± 0.032 for the second.

V6W and V6K are within error of each other in abundance fitness: -0.067 ± 0.042 for the first, -0.023 ± 0.04 for the second.

First: V6L
Second: V6E
The abundance fitness of the first is higher: -0.052 ± 0.027 for the first, -0.135 ± 0.041 for the second.

V6Q and V6F are within error of each other in abundance fitness: -0.025 ± 0.038 for the first, -0.073 ± 0.031 for the second.

First: V6R
Second: V6P
The abundance fitness of the first is higher: -0.093 ± 0.026 for the first, -0.796 ± 0.049 for the second.

Compared with V6C, V6S is lower in abundance fitness: -0.103 ± 0.03 for the first, -0.19 ± 0.026 for the second.

Going from V6G to V6T, the abundance fitness rises from -0.636 ± 0.03 to -0.017 ± 0.029.

Going from V6I to V6H, the abundance fitness falls from -0.028 ± 0.027 to -0.154 ± 0.033.

V6M and L8Q are within error of each other in abundance fitness: -0.1 ± 0.044 for the first, -0.093 ± 0.047 for the second.

Going from L8S to L8M, the abundance fitness rises from -0.107 ± 0.035 to -0.014 ± 0.049.

Going from L8P to L8G, the abundance fitness rises from -0.657 ± 0.05 to -0.338 ± 0.027.

L8C and L8V are within error of each other in abundance fitness: -0.04 ± 0.041 for the first, -0.055 ± 0.029 for the second.

Compared with L8R, L8A is lower in abundance fitness: -0.017 ± 0.028 for the first, -0.124 ± 0.031 for the second.

L8K and L8N are within error of each other in abundance fitness: -0.003 ± 0.052 for the first, -0.118 ± 0.077 for the second.

L8E and L8D are within error of each other in abundance fitness: -0.094 ± 0.035 for the first, -0.137 ± 0.055 for the second.

Going from L8T to L8F, the abundance fitness falls from -0.019 ± 0.04 to -0.222 ± 0.056.

Going from L2C to L2N, the abundance fitness rises from -0.177 ± 0.047 to 0.012 ± 0.088.

L2G and L2S are within error of each other in abundance fitness: -0.018 ± 0.039 for the first, -0.075 ± 0.04 for the second.

L2E and L2P are within error of each other in abundance fitness: -0.126 ± 0.06 for the first, -0.136 ± 0.059 for the second.

L2K and L2M are within error of each other in abundance fitness: -0.095 ± 0.08 for the first, -0.055 ± 0.056 for the second.

L2F and L2Q are within error of each other in abundance fitness: 0.011 ± 0.043 for the first, -0.013 ± 0.089 for the second.

L2T and L2V are within error of each other in abundance fitness: -0.161 ± 0.074 for the first, -0.116 ± 0.036 for the second.

L2H and L2W are within error of each other in abundance fitness: -0.167 ± 0.12 for the first, -0.088 ± 0.042 for the second.

L2Y and L2A are within error of each other in abundance fitness: -0.036 ± 0.073 for the first, -0.093 ± 0.07 for the second.

L2R and L2I are within error of each other in abundance fitness: -0.075 ± 0.041 for the first, -0.089 ± 0.071 for the second.

K3V and K3D are within error of each other in abundance fitness: -0.107 ± 0.041 for the first, -0.22 ± 0.08 for the second.

K3Y and K3T are within error of each other in abundance fitness: -0.205 ± 0.058 for the first, -0.117 ± 0.062 for the second.

K3M and K3R are within error of each other in abundance fitness: 0 ± 0.05 for the first, -0.065 ± 0.043 for the second.

Going from K3F to K3Q, the abundance fitness falls from -0.038 ± 0.065 to -0.293 ± 0.067.

K3P and K3G are within error of each other in abundance fitness: -0.234 ± 0.064 for the first, -0.227 ± 0.042 for the second.

K3E and K3A are within error of each other in abundance fitness: -0.309 ± 0.07 for the first, -0.225 ± 0.053 for the second.

K3N and K3S are within error of each other in abundance fitness: -0.112 ± 0.056 for the first, -0.135 ± 0.044 for the second.

K3I and K3H are within error of each other in abundance fitness: -0.257 ± 0.054 for the first, -0.224 ± 0.078 for the second.

K3L and K3C are within error of each other in abundance fitness: -0.102 ± 0.034 for the first, -0.223 ± 0.09 for the second.

K3W showed an abundance fitness of -0.253 ± 0.05.
